The values below come from paper doi:10.1101/2022.09.07.506877.

For this data set, the target named is Sb-gRAMP (type III-E CRISPR effector, Cas7-11);TPR-CHAT (caspase-like peptidase) (Candidatus "Scalindua …, UniProt A0A0B0EGF3;A0A0B0EKL4 1-1717;1-716, |). Nature of the data set: cryo-EM structure.

B1: crRNA (37 nt) / target ssRNA (18 nt as modelled) (structured_RNA)
RNA 1: GGACUUAAUGUCACGGUACCCAAUUUUCUGCCCCGGA
RNA 2: UCCGGGGCAGAAAAUUGG
As for B1, the binding result is “binds”.
